Experiments:
MLE dsRBD1,2 [1] = target: T1, MLE dsRBD1,2 (UniProt P24785 1-257); test: NMR titration; severe line broadening; Filter binding: 20 mM HEPES/NaOH pH 8.0, 150 mM NaCl, 5 mM MgCl2, on ice; ITC: 10 mM HEPES pH 8.0, 75 mM NaCl, 2.5 mM MgCl2, 1 mM b-mercaptoethanol, 20 C; NMR:; details: protein: recombinant, tags: N-terminal His6 removed by TEV
[2] = target: MLE dsRBD1,2 linker deletion (UniProt P24785 1-257, del85-140); test: filter binding; affinity similar to dsRBD1,2; Filter binding: 20 mM HEPES/NaOH pH 8.0, 150 mM NaCl, 5 mM MgCl2, on ice; ITC: 10 mM HEPES pH 8.0, 75 mM NaCl, 2.5 mM MgCl2, 1 mM b-mercaptoethanol, 20 C; NMR:; details: protein: recombinant; tags: N-terminal His6 removed by TEV; hairpin
MLE dsRBD2 [3] = target: T2, MLE dsRBD2 (UniProt P24785 155-257); test: filter binding; 5 mM Mg2+; Filter binding: 20 mM HEPES/NaOH pH 8.0, 150 mM NaCl, 5 mM MgCl2, on ice; ITC: 10 mM HEPES pH 8.0, 75 mM NaCl, 2.5 mM MgCl2, 1 mM b-mercaptoethanol, 20 C; NMR:; details: protein: recombinant; tags: N-terminal His6 removed by TEV; hairpin
MLE dsRBD1,2 [4] = target: T1, MLE dsRBD1,2; test: as above; details: protein: recombinant; tags: N-terminal His6 removed by TEV; hairpin
MLE dsRBD1,2 [5] = target: T1, MLE dsRBD1,2; test: ITC; n=0.95; Filter binding: 20 mM HEPES/NaOH pH 8.0, 150 mM NaCl, 5 mM MgCl2, on ice; ITC: 10 mM HEPES pH 8.0, 75 mM NaCl, 2.5 mM MgCl2, 1 mM b-mercaptoethanol, 20 C; NMR:; details: protein: recombinant; tags: N-terminal His6 removed by TEV; hairpin
MLE dsRBD2 [6] = target: T2, MLE dsRBD2; test: ITC; n=0.93; Filter binding: 20 mM HEPES/NaOH pH 8.0, 150 mM NaCl, 5 mM MgCl2, on ice; ITC: 10 mM HEPES pH 8.0, 75 mM NaCl, 2.5 mM MgCl2, 1 mM b-mercaptoethanol, 20 C; NMR:; details: protein: recombinant; tags: N-terminal His6 removed by TEV; hairpin
MLE dsRBD2 [7] = target: T2, MLE dsRBD2; test: NMR titration; Filter binding: 20 mM HEPES/NaOH pH 8.0, 150 mM NaCl, 5 mM MgCl2, on ice; ITC: 10 mM HEPES pH 8.0, 75 mM NaCl, 2.5 mM MgCl2, 1 mM b-mercaptoethanol, 20 C; NMR:; details: protein: recombinant; tags: N-terminal His6 removed by TEV; blunt, internal A-C mismatch and G-U pairs
MLE dsRBD1 = MLE dsRBD1 (UniProt P24785 1-84); test: as above; details: protein: recombinant; tags: N-terminal His6 removed by TEV; blunt, internal A-C mismatch and G-U pairs
MLE dsRBD1 K53E = MLE dsRBD1 K53E (UniProt P24785 1-84, K53E); test: NMR titration; 1.3x RNA; Filter binding: 20 mM HEPES/NaOH pH 8.0, 150 mM NaCl, 5 mM MgCl2, on ice; ITC: 10 mM HEPES pH 8.0, 75 mM NaCl, 2.5 mM MgCl2, 1 mM b-mercaptoethanol, 20 C; NMR:; details: protein: recombinant; tags: N-terminal His6 removed by TEV; blunt, internal A-C mismatch and G-U pairs
MLE dsRBD1 K53+54E = MLE dsRBD1 K53+54E (UniProt P24785 1-84, K53E;K54E); test: as above; details: protein: recombinant; tags: N-terminal His6 removed by TEV; blunt, internal A-C mismatch and G-U pairs
MLE dsRBD1 K54E = MLE dsRBD1 K54E (UniProt P24785 1-84, K54E); test: as above; details: protein: recombinant; tags: N-terminal His6 removed by TEV; blunt, internal A-C mismatch and G-U pairs
MLE dsRBD1,2 [8] = target: T1, MLE dsRBD1,2; test: ITC; n=0.84; Filter binding: 20 mM HEPES/NaOH pH 8.0, 150 mM NaCl, 5 mM MgCl2, on ice; ITC: 10 mM HEPES pH 8.0, 75 mM NaCl, 2.5 mM MgCl2, 1 mM b-mercaptoethanol, 20 C; NMR:; details: protein: recombinant; tags: N-terminal His6 removed by TEV; blunt, internal A-C mismatch and G-U pairs
MLE dsRBD2 [9] = target: T2, MLE dsRBD2; test: ITC; n=0.70; Filter binding: 20 mM HEPES/NaOH pH 8.0, 150 mM NaCl, 5 mM MgCl2, on ice; ITC: 10 mM HEPES pH 8.0, 75 mM NaCl, 2.5 mM MgCl2, 1 mM b-mercaptoethanol, 20 C; NMR:; details: protein: recombinant; tags: N-terminal His6 removed by TEV; blunt, internal A-C mismatch and G-U pairs

B1: SL7 23mer duplex (dsRNA)
RNA 1: UUAAAAGACGUGUAAAAUGUUGC
RNA 2: GUAACGUUUUACGCGCCUUUUCC
B1: binds (MLE dsRBD1,2 [1]; 23 + 23 nt, terminal U-C mismatches, internal A-C mismatch).

B2: UR23mer (dsRNA)
RNA 1: UAAAGUGCUUAUAGUGCAGGUAG
RNA 2: ACCUGCACUAUAAGCACUUUAAG
B2: binds (MLE dsRBD1,2 [1]; 3' overhangs 2 nt on both ends).

GUGUAAAAUGUUGCAAUAUAUAGUAACGUUUUACGC (structured_RNA) [SL7 14merLoop] was tested, and the binding result [2] was “binds”, the Kd (MLE dsRBD2 [3]) was roughly 22 µM and the Kd (MLE dsRBD1,2 [4]) was 6.8 µM. For the same binder, the Kd (MLE dsRBD1,2 [5]) was 4.66 ± 0.71 µM and the Kd (MLE dsRBD2 [6]) was 5.92 ± 1.31 µM.

B3: SL7 18mer duplex (dsRNA)
RNA 1: AGACGUGUAAAAUGUUGC
RNA 2: GUAACGUUUUACGCGCCU
With B3 the Kd (MLE dsRBD2 [7]) was roughly 33 µM, the Kd (MLE dsRBD1) was roughly 470 µM and the binding result (MLE dsRBD1 K53E) was “no binding”. For the same binder, the binding result (MLE dsRBD1 K53+54E) was “no binding”, the binding result (MLE dsRBD1 K54E) was “no binding” and the Kd (MLE dsRBD1,2 [8]) was 3.18 ± 0.48 µM. It also gave a Kd (MLE dsRBD2 [9]) of 2.71 ± 0.19 µM.

— article PMC6486548, “Structure, dynamics and roX2-lncRNA binding of tandem double-stranded RNA binding domains dsRBD1,2 of Drosophila helicase Maleless”
